The target in this assay is full-length monkey CD137 on the cell surface (cynomolgus monkey). Briefly: flow cytometry, PMA + ionomycin activated cynomolgus T cells, antibody at 100 nM (Example 4d), Alexa Fluor 647 anti-human Fc; SSC-H against antibody binding.
Chain of full-length monkey CD137 on the cell surface (cynomolgus monkey) (Q07011 other isoform, or with tags, fused parts or gaps): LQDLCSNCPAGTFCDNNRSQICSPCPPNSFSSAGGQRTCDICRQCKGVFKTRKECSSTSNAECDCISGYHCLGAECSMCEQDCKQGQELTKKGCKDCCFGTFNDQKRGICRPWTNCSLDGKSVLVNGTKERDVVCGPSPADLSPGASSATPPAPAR

Turning to human IgG4 isotype control antibody, the percent of cells in the lower right (antibody-positive) quadrant was determined as 1.5%.

These data come from patent US20200369776A1.
